Laboratory results from paper PMC9499628, “Nuclear Factor Kappa B Promotes Ferritin Heavy Chain Expression in Bombyx mori in Response to B. mori Nucleopolyhedrovirus Infection”.

Key:
BmRelish RHD (RelRHD) [1] = molecular target: T1, BmRelish RHD (RelRHD) (Bombyx mori, UniProt A0A8R2LW60 51-335); assay: EMSA; cold probe weakens band; Chemiluminescent EMSA Kit (Beyotime), manufacturer's instructions; buffer, salt, pH and temperature not stated; details: protein: recombinant; tags: 6xHis (pET-30a); chain copies: 2; label: 5' biotin (unlabelled as cold probe); blunt
T1 sequence: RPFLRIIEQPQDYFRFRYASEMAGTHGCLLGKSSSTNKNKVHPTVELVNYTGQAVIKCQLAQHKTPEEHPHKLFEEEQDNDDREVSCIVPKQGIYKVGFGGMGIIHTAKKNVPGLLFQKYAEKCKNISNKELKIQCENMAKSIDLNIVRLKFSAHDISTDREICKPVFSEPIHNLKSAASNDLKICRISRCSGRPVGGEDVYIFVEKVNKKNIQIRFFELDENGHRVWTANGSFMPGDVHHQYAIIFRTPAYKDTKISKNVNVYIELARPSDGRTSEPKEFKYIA

BmRelish RHD (RelRHD) [2] = molecular target: T1, BmRelish RHD (RelRHD); assay: competition; mutant competitor against CRE2 probe; band not affected; Chemiluminescent EMSA Kit (Beyotime), manufacturer's instructions; buffer, salt, pH and temperature not stated; details: protein: recombinant; tags: 6xHis (pET-30a); chain copies: 2; blunt
BmRelish RHD (RelRHD) [3] = molecular target: T1, BmRelish RHD (RelRHD); assay: competition; mutant competitor against CRE4 probe; band not affected; Chemiluminescent EMSA Kit (Beyotime), manufacturer's instructions; buffer, salt, pH and temperature not stated; details: protein: recombinant; tags: 6xHis (pET-30a); chain copies: 2; blunt

B1: probe-CRE4 (dsDNA)
DNA 1: AATAAGTGGGAATCTCTCCATCTCGC
DNA 2: GCGAGATGGAGAGATTCCCACTTATT
binding result (BmRelish RHD (RelRHD) [1]): binds

B2: Mut-CRE2 (dsDNA)
DNA 1: AATGTACATTATCTCCATCTCG
DNA 2: CGAGATGGAGATAATGTACATT
binding result (BmRelish RHD (RelRHD) [2]): no binding

B3: probe-CRE2 (dsDNA)
DNA 1: AATGTAGGTTATTTCCATCTCG
DNA 2: CGAGATGGAAATAACCTACATT
binding result (BmRelish RHD (RelRHD) [1]): binds

B4: Mut-CRE4 (dsDNA)
DNA 1: AATAAGTGCCAAACACTCCATCTCGC
DNA 2: GCGAGATGGAGTGTTTGGCACTTATT
binding result (BmRelish RHD (RelRHD) [3]): no binding
